Positions of bridges follow the written chain, without caps; N, C: chain ends. No end group written: not given here.
T1: CD62P (P-selectin) lectin domain (residues 1–117), wild type
T1 construct: CD62P (P-selectin) C-type lectin domain, residues 1-117; cDNA chemically synthesized, BamHI/EcoRI site of pET28a; also called CD62P lectin domain; C-type lectin domain of CD62P; not shown: His tag from pET28a ([residues removed]), N-terminal, kept
T1 chain: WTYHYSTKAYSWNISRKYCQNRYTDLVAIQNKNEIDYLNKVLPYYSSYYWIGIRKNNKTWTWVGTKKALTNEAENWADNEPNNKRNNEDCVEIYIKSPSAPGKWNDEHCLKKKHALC

B1: cyclic site 2 peptide of integrin β3 (residues 260–288, C273S) fused to GST (peptide)
chain: CRLAGIVQPNDGQSHVGSDNHYSASTTMC
modifications: disulfide 1-29 (inferred); also: fused to GST
notes: also called cyclic site 2 peptide from β3; site 2 peptide of β3
B2: cyclic site 2 peptide of integrin β1 (residues 268–295, C281S) fused to GST (peptide)
chain: CKLGGIVLPNDGQSHLENNMYTMSHYYC
modifications: disulfide 1-28 (inferred); also: fused to GST
notes: also called cyclic site 2 peptide from β1; site 2 peptide from β1

Molecular target: T1, CD62P (P-selectin) lectin domain …
Test: ELISA; wells coated with the CD62P lectin domain (20 μg/ml), blocked with BSA; site 2 peptides fused to GST (100 μg/ml); bound GST detected with HRP-conjugated anti-GST
Details: both partners purified

Binder | binding result
B1 | binds
B2 | binds
